Several values for one entry are separate records, joined by “and”; a condition that tells them apart may be missing. Equal values may be shown once.
B1: GST-tagged FLNa domain 17 (other)
chain: DYVNCGHVTAYGPGLTHGVVNKPATFTVNTKDAGEGGLSLAIEGPSKAEISCTDNQDGTCSVSYLPVLPGDYSILVKYNEQHVPGSPFTA
notes: domain: domain 17
B2: GST-tagged FLNa domain 24 (other)
chain: PGPADASKVVAKGLGLSKAYVGQKSSFTVDCSKAGNNMLLVGVHGPRTPCEEILVKHVGSRLYSVSYLLKDKGEYTLVVKWGDEHIPGSPYRVVVP
notes: domain: domain 24
B3: GST-tagged FLNa domain 11 (other)
chain: EPAVDTSGVQCYGPGIEGQGVFREATTEFSVDARALTQTGGPHVKARVANPSGNLTETYVQDRGDGMYKVEYTPYEEGLHSVDVTYDGSPVPSSPFQVPV
notes: domain: domain 11
B4: GST-tagged FLNa domain 22 (other)
chain: SPSGDARRLTVSSLQESGLKVNQPASFAVSLNGAKGAIDAKVHSPSGALEECYVTEIDQDKYAVRFIPRENGVYLIDVKFNGTHIPGSPFKIRV
notes: domain: domain 22
B5: GST-tagged FLNa domain 20 (other)
chain: VKVTGEGRVKESITRRRRAPSVANVGSHCDLSLKIPEISIQDMTAQVTSPSGKTHEAEIVEGENHTYCIRFVPAEMGTHTVSVKYKGQHVPGSPFQFTV
notes: domain: domain 20
B6: GST-tagged FLNa domain 18 (other)
chain: RVTGDDSMRMSHLKVGSAADIPINISETDLSLLTATVVPPSGREEPCLLKRLRNGHVGISFVPKETGEHLVHVKKNGQHVASSPIPVVI
notes: domain: domain 18
B7: GST-tagged FLNa domain 23 (other)
chain: GHGGDPGLVSAYGAGLEGGVTGNPAEFVVNTSNAGAGALSVTIDGPSKVKMDCQECPEGYRVTYTPMAPGSYLISIKYGGPYHIGGSPFKAKV
notes: domain: domain 23
B8: GST-tagged FLNa domain 21 (other)
chain: LGEGGAHKVRAGGPGLERAEAGVPAEFSIWTREAGAGGLAIAVEGPSKAEISFEDRKDGSCGVAYVVQEPGDYEVSVKFNEEHIPDSPFVVPV
notes: domain: domain 21
B9: GST-tagged FLNa domain 19 (other)
chain: SEIGDASRVRVSGQGLHEGHTFEPAEFIIDTRDAGYGGLSLSIEGPSKVDINTEDLEDGTCRVTYCPTEPGNYIINIKFADQHVPGSPFS
notes: domain: domain 19
B10: GST-tagged FLNa domain 10 (other)
chain: VPCFDASKVKCSGPGLERATAGEVGQFQVDCSSAGSAELTIEICSEAGLPAEVYIQDHGDGTHTITYIPLCPGAYTVTIKYGGQPVPNFPSKLQV
notes: domain: domain 10

These molecules were tested against filamin A (FLNa) of human tumour cell lines (endogenous) (human) (UniProt P21333) (assay: cell-based or functional assay).

Molecule | inhibition of cellular motility of A7 cells (wound-healing assay)
KKRPK-PrP-GPI-PSS synthetic peptide | 50% and 60%

Each molecule was assayed against recombinant pro-PrP^23-253 (human, UniProt P04156 23-253) (assay: in vitro pull-down with mAb 8H4 and protein G beads, anti-GST immunoblot).

Molecule | binding result
B1 | binds
B2 | no binding
B3 | no binding
B4 | no binding
B5 | binds
B6 | binds
B7 | binds
B8 | binds
B9 | no binding
B10 | binds

From patent US20110257102A1 (CASE WESTERN RESERVE UNIVERSITY, published 2011)
